To fix the notation:
B1: MBP-Chs4-SLR (220-610) (domain or fragment, S. cerevisiae, UniProt P34226 220-610, looked up)
chain: QYMLQTALTIESSNALVQDSDKEGNVSQSDLKLQFLKEAQSYLKKLSIKGYSDAQYLLADGYSSGAFGKIENKEAFVLFQAAAKHGHIESAYRASHCLEEGLGTTRDSRKSVNFLKFAASRNHPSAMYKLGLYSFYGRMGLPTDVNTKLNGVKWLSRAAARANELTAAAPYELAKIYHEGFLDVVIPDEKYAMELYIQAASLGHVPSATLLAQIYETGNDTVGQDTSLSVHYYTQAALKGDSVAMLGLCAWYLLGAEPAFEKDENEAFQWALRAANAGLPKAQFTLGYFYEHGKGCDRNMEYAWKWYEKAAGNEDKRAINKLRSRDGGLASIGKKQHKKNKSISTLNLFSTVDSQTSNVGSNSRVSSKSETFFTGNPKRDREPQGLQINMN

Common to all, as to test: pull-down
In one experiment the target is T1, His6-Chs3-MID (477-1028) (S. cerevisiae, UniProt P29465 477-1028).
T1 sequence (looked up): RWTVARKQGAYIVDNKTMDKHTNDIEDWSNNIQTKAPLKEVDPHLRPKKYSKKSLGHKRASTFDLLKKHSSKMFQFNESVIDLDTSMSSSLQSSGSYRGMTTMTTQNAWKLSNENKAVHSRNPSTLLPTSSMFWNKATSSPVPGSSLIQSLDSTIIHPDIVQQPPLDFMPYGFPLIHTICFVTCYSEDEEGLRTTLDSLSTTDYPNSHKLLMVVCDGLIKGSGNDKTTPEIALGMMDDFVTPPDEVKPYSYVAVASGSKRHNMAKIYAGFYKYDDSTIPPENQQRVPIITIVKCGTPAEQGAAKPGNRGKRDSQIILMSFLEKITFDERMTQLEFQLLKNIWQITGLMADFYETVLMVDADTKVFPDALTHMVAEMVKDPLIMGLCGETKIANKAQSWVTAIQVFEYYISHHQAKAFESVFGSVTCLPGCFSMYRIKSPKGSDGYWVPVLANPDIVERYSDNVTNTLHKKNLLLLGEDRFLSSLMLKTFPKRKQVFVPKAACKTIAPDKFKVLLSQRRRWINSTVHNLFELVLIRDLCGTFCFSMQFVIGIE

The target of experiment [1] is T2, GST-Chs4-SLR (220-610) (S. cerevisiae, UniProt P34226 220-610).
T2 sequence (looked up): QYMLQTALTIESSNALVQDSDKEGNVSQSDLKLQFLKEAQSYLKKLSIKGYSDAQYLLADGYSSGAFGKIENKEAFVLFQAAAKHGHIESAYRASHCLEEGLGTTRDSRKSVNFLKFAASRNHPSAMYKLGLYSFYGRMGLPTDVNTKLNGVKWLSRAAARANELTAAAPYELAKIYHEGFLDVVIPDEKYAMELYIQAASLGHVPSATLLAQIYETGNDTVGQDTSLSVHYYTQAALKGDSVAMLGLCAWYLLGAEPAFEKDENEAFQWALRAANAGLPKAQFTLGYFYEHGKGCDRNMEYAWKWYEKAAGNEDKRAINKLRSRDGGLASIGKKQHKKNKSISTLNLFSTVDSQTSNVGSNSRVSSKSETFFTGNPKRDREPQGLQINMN

The target in the experiment “MBP-Chs4-SLR (220-610)” is B1.
The target in experiment [2] is T2, GST-Chs4-SLR (220-610). The source holds these as a separate data set.

Like-named read-outs stand apart in the source and are kept apart here.

The record followed here is paper PMC5658023 (Current biology : CB, 2017).

Take B1: the binding result in the experiment with His6-Chs3-MID (477-1028) is “binds”.

B2: His6-Hof1-N-term (domain or fragment, S. cerevisiae, UniProt Q05080 1-340, looked up)
chain: MSYSYEACFWDPNDNGVNILLGHISQGIRSCDSMILFFKQRSELEKDYARRLGAITGKLDKDIGTNMDYGKLNETFNVVLSVEKARAQSHSKQSEILFRQIYTDTKAFAANLQARYTTLSGKIERLRMDKFNKKKGCEVLQKKLQDAQIRFRDLQLNENNMIGAKRVEHNKRELLKWESNSQEYKVQLDVLKQEYKASQKFWIHEWAQLSCELQEMENARISFLQSKLQQFATSSMETYILEQTKMDMLTNHLNSFTAADEISTFSKENGTGRLKHKTSKGDMNSSANWAQMSSISTTSKKTESYMDNIRKLSSQLKETENKRKLASIDKYEKPLPSPEV
Regarding B2, the binding result in the experiment with GST-Chs4-SLR (220-610) [1] and with MBP-Chs4-SLR (220-610) was “binds” throughout.

B3: MBP-Hof1-N-term (1-340) (domain or fragment, S. cerevisiae, UniProt Q05080 1-340, looked up)
chain: MSYSYEACFWDPNDNGVNILLGHISQGIRSCDSMILFFKQRSELEKDYARRLGAITGKLDKDIGTNMDYGKLNETFNVVLSVEKARAQSHSKQSEILFRQIYTDTKAFAANLQARYTTLSGKIERLRMDKFNKKKGCEVLQKKLQDAQIRFRDLQLNENNMIGAKRVEHNKRELLKWESNSQEYKVQLDVLKQEYKASQKFWIHEWAQLSCELQEMENARISFLQSKLQQFATSSMETYILEQTKMDMLTNHLNSFTAADEISTFSKENGTGRLKHKTSKGDMNSSANWAQMSSISTTSKKTESYMDNIRKLSSQLKETENKRKLASIDKYEKPLPSPEV
For B3, the binding result in the experiment with GST-Chs4-SLR (220-610) [2] is listed as “binds”.

B4: MBP-Hof1-F-BAR (1-275) (domain or fragment, S. cerevisiae, UniProt Q05080 1-275, looked up)
chain: MSYSYEACFWDPNDNGVNILLGHISQGIRSCDSMILFFKQRSELEKDYARRLGAITGKLDKDIGTNMDYGKLNETFNVVLSVEKARAQSHSKQSEILFRQIYTDTKAFAANLQARYTTLSGKIERLRMDKFNKKKGCEVLQKKLQDAQIRFRDLQLNENNMIGAKRVEHNKRELLKWESNSQEYKVQLDVLKQEYKASQKFWIHEWAQLSCELQEMENARISFLQSKLQQFATSSMETYILEQTKMDMLTNHLNSFTAADEISTFSKENGTGRLK
With B4, the binding result with GST-Chs4-SLR (220-610) [2] is reported as “binds”.
